Experiments:
[1] = molecular target: human somatostatin receptor SSTR1 (human); assay: radioligand binding to CHO cells transfected with human SSTR1, gamma counting
[2] = molecular target: mouse somatostatin receptor SSTR2 (mouse); assay: radioligand binding to CHO cells transfected with mouse SSTR2 in the presence of 1 µM somatostatin-14
[3] = molecular target: human somatostatin receptor SSTR1 (human); assay: radioligand binding to CHO cells transfected with human SSTR1 in the presence of 1 µM somatostatin-14
[4] = molecular target: mouse somatostatin receptor SSTR2 (mouse); assay: radioligand binding to CHO cells transfected with mouse SSTR2, gamma counting

- control binding (radiolabeled ligand bound in the absence of inhibitor) [1]: 1420 cpm
- non-specific binding (radiolabeled ligand bound in the presence of 1 µM somatostatin-14) [2]: 225 cpm
- non-specific binding (radiolabeled ligand bound in the presence of 1 µM somatostatin-14) [3]: 225 cpm
- control binding (radiolabeled ligand bound in the absence of inhibitor) [4]: 2080 cpm
Substance: [125I]iodo-Tyr11-somatostatin-14 (from UniProt P61278) (peptide)
